Some targets named below: PDLIM1, O00151; GRASP, Q7Z6J2; SCRIB_1, Q14160; DLG4_2, P78352; FRMPD3, Q5JV73; LDB3, O75112; DLG1_2, Q12959; MAGI2_2, Q86UL8; GRIP2_7, Q9C0E4; PARD3_3, Q8TEW0.
Experiment in all cases: holdup assay
Common to all, as to design: key: below the threshold = too weak to quantify, mostly under pKd 3.1 to 4
Common to all, as to details: plain residues with an end cap or a label only (N-terminal biotin on a linker: ado-ado)

The target in another assay is T1, HTRA3, P83110.
T1 sequence (P83110 354-453, limits assumed, looked up): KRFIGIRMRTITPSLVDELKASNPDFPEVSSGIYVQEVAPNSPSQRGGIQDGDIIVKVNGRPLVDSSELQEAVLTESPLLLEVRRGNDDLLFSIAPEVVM

The target in another assay is T2, TIAM2, Q8IVF5.
T2 sequence (Q8IVF5 885-986, limits assumed, looked up): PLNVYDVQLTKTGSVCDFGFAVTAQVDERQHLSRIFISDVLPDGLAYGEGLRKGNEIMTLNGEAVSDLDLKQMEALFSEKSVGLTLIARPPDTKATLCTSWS

For a further assay, the target named is T3, LIN7B, Q9HAP6.
T3 sequence (Q9HAP6 88-185, limits assumed, looked up): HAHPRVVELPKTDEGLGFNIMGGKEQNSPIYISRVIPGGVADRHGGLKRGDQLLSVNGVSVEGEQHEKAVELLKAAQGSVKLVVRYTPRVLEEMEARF

Another assay concerns the target T4, GRIP1_4, Q9Y3R0.
T4 sequence (Q9Y3R0 467-571, limits assumed, looked up): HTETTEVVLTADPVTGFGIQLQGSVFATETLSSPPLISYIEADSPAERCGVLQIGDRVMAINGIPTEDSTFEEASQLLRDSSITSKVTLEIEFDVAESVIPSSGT

Another assay deals with T5, PTPN13_1, Q12923.
T5 sequence (Q12923 1088-1188, limits assumed, looked up): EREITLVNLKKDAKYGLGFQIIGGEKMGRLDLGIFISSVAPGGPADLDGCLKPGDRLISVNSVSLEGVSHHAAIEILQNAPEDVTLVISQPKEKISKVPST

The target in the next assay is T6, PDZD7_3, Q9H5P4.
T6 sequence (Q9H5P4 857-944, limits assumed, looked up): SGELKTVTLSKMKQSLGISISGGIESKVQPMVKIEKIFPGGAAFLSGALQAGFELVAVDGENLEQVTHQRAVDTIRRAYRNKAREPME

The next assay deals with T7, SNTA1, Q13424.
T7 sequence (Q13424 82-180, limits assumed, looked up): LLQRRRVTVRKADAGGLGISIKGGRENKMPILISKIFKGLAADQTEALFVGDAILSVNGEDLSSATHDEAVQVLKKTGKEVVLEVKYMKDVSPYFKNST

Another assay has as its target T8, CARD11, Q9BXL7.
T8 sequence (Q9BXL7 662-765, limits assumed, looked up): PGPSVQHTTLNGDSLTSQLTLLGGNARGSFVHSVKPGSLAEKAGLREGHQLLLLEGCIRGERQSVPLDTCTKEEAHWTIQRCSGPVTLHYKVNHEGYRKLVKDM

Another assay concerns the target T9, DFNB31_3, Q9P202.
T9 sequence (Q9P202 811-907, limits assumed, looked up): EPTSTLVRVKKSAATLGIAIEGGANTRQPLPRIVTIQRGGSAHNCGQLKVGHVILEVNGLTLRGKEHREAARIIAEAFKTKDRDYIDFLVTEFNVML

The next assay concerns the target T10, DFNB31_2, Q9P202.
T10 sequence (Q9P202 274-371, limits assumed, looked up): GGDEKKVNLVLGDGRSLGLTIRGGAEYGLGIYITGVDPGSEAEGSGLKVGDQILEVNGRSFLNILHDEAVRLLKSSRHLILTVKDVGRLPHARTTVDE

In the next assay the target is T11, DVL3, Q92997.
T11 sequence (Q92997 244-331, limits assumed, looked up): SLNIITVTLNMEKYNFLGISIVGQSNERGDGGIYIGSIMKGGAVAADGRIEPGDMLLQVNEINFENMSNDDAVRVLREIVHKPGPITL

The target in a further assay is T12, LIN7A, O14910.
T12 sequence (O14910 103-200, limits assumed, looked up): T3 sequence (Q9HAP6 88-185, limits assumed, looked up) with A2S, I20V, V35I, D42E, Q65H, Q77K, G78D, R89K

A further assay addresses T13, APBA1_1, Q02410.
T13 sequence (Q02410 651-752, limits assumed, looked up): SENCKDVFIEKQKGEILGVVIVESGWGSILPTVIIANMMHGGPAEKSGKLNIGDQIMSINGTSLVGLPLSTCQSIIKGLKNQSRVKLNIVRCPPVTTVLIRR

The target of the next assay is T14, DFNB31_1, Q9P202.
T14 sequence (Q9P202 135-233, limits assumed, looked up): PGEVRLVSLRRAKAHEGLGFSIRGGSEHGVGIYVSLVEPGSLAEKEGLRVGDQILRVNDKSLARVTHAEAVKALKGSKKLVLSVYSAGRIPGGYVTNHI

Positions count from the first letter of the chain named.

Sequence of MAGI2_2, Q86UL8 (Q86UL8 410-522): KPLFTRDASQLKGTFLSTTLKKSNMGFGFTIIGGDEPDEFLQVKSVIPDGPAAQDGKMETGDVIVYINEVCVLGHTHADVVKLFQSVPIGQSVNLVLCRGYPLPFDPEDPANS
Sequence of PARD3_3, Q8TEW0 (Q8TEW0 582-685): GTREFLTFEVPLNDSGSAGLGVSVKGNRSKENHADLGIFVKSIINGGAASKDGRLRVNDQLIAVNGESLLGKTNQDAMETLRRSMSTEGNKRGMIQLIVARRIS
Sequence of GRIP2_7, Q9C0E4 (Q9C0E4 934-1023): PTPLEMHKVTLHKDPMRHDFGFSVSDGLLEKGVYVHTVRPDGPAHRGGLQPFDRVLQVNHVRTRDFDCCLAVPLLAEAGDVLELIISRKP
Sequence of DLG1_2, Q12959 (Q12959 314-412): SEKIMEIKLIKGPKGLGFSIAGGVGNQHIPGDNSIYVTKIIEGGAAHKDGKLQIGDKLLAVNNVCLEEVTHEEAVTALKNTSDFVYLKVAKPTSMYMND
Sequence of SCRIB_1, Q14160 (Q14160 718-814): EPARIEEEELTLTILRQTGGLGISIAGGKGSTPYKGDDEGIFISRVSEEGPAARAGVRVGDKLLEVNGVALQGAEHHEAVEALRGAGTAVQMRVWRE
Sequence of PDLIM1, O00151 (O00151 1-87): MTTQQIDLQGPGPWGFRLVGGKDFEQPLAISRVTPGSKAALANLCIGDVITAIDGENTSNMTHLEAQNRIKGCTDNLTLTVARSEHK
Sequence of FRMPD3, Q5JV73 (Q5JV73 12-100): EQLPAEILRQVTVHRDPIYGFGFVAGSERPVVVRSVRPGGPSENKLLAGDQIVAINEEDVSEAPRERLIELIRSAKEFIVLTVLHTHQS
Sequence of DLG4_2, P78352 (P78352 155-259): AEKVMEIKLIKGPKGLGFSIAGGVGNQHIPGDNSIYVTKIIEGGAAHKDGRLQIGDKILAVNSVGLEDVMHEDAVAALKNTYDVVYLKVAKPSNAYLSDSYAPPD
Sequence of LDB3, O75112 (O75112 1-94): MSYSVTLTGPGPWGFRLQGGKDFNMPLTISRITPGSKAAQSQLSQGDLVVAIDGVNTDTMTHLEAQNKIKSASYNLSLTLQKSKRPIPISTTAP
Sequence of GRASP, Q7Z6J2 (Q7Z6J2 96-193): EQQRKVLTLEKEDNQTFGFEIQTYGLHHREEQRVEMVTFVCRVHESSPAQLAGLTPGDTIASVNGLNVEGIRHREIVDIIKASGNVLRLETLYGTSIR

Turning to NASRTRITFV [MCM7, P33993], the pKd result in the assay with PDLIM1, O00151 was “below the threshold”; with HTRA3, P83110 it was 4.51; with GRASP, Q7Z6J2, 4.53; with SCRIB_1, Q14160, 4.26; in the assay with TIAM2, Q8IVF5, 4.06; with DLG4_2, P78352, 5.12. Besides, the pKd in the assay with LIN7B, Q9HAP6 is 3.9; with GRIP1_4, Q9Y3R0 it was “below the threshold”; with PTPN13_1, Q12923, “below the threshold”; with PDZD7_3, Q9H5P4 it was 5.26; with SNTA1, Q13424, 4.97; in the assay with CARD11, Q9BXL7 it was “below the threshold”. Besides, the pKd was 4.74 with DFNB31_3, Q9P202; “below the threshold” with FRMPD3, Q5JV73; “below the threshold” in the assay with DFNB31_2, Q9P202; 3.96 with DVL3, Q92997; “below the threshold” with LDB3, O75112; 5.28 in the assay with DLG1_2, Q12959. For the same molecule, the negative-log Kd (pKd) was 5.31 with MAGI2_2, Q86UL8; “below the threshold” with LIN7A, O14910; 4.27 in the assay with GRIP2_7, Q9C0E4; “below the threshold” with APBA1_1, Q02410; “below the threshold” with DFNB31_1, Q9P202; “below the threshold” with PARD3_3, Q8TEW0.
As to NVYGTESVKI [GRIA3, P42263], the negative-log Kd (pKd) entry with PDLIM1, O00151 is “below the threshold”; with HTRA3, P83110, “below the threshold”; with GRASP, Q7Z6J2, “below the threshold”; in the assay with SCRIB_1, Q14160 it was “below the threshold”; in the assay with TIAM2, Q8IVF5, “below the threshold”; with DLG4_2, P78352 it was “below the threshold”. Further, the pKd entry in the assay with LIN7B, Q9HAP6 is on record as “below the threshold”; with GRIP1_4, Q9Y3R0, “below the threshold”; with PTPN13_1, Q12923, “below the threshold”; with PDZD7_3, Q9H5P4, “below the threshold”; with SNTA1, Q13424, “below the threshold”; in the assay with CARD11, Q9BXL7, “below the threshold”. Further, the pKd entry with DFNB31_3, Q9P202 is given as “below the threshold”; with FRMPD3, Q5JV73, “below the threshold”; with DFNB31_2, Q9P202 it was “below the threshold”; in the assay with DVL3, Q92997 it was “below the threshold”; with LDB3, O75112, “below the threshold”; with DLG1_2, Q12959 it was “below the threshold”. Further, the pKd entry with MAGI2_2, Q86UL8 is “below the threshold”; in the assay with LIN7A, O14910, “below the threshold”; with GRIP2_7, Q9C0E4, “below the threshold”; with APBA1_1, Q02410 it was “below the threshold”; in the assay with DFNB31_1, Q9P202, “below the threshold”; in the assay with PARD3_3, Q8TEW0, 3.73.
As for ANGLMQTSKL [SSTR5, P35346], the pKd entry in the assay with PDLIM1, O00151 is “below the threshold”; in the assay with HTRA3, P83110 it was “below the threshold”; with GRASP, Q7Z6J2, 4.68; with SCRIB_1, Q14160, 4.06; in the assay with TIAM2, Q8IVF5, 3.65; with DLG4_2, P78352, “below the threshold”. For the same molecule, the pKd with LIN7B, Q9HAP6 was 3.47; in the assay with GRIP1_4, Q9Y3R0 it was “below the threshold”; in the assay with PTPN13_1, Q12923, “below the threshold”; in the assay with PDZD7_3, Q9H5P4, 4.22; with SNTA1, Q13424, “below the threshold”; with CARD11, Q9BXL7, “below the threshold”. Besides, the pKd in the assay with DFNB31_3, Q9P202 was 4.22; with FRMPD3, Q5JV73 it was “below the threshold”; with DFNB31_2, Q9P202, “below the threshold”; in the assay with DVL3, Q92997, “below the threshold”; in the assay with LDB3, O75112, “below the threshold”; with DLG1_2, Q12959, “below the threshold”. Besides, the pKd result in the assay with MAGI2_2, Q86UL8 is “below the threshold”; with LIN7A, O14910, “below the threshold”; with GRIP2_7, Q9C0E4 it was “below the threshold”; with APBA1_1, Q02410, “below the threshold”; with DFNB31_1, Q9P202, 4.34; with PARD3_3, Q8TEW0, “below the threshold”.
With ETSLVKGIDI [DENND5A, Q6IQ26], the pKd result with PDLIM1, O00151 was “below the threshold”; in the assay with HTRA3, P83110, 3.91; in the assay with GRASP, Q7Z6J2, “below the threshold”; with SCRIB_1, Q14160, “below the threshold”; with TIAM2, Q8IVF5, “below the threshold”; with DLG4_2, P78352 it was “below the threshold”. In addition, the pKd entry with LIN7B, Q9HAP6 was “below the threshold”; with GRIP1_4, Q9Y3R0, “below the threshold”; in the assay with PTPN13_1, Q12923 it was “below the threshold”; with PDZD7_3, Q9H5P4, “below the threshold”; with SNTA1, Q13424, “below the threshold”; in the assay with CARD11, Q9BXL7 it was “below the threshold”. The pKd result with DFNB31_3, Q9P202 was “below the threshold”; with FRMPD3, Q5JV73, “below the threshold”; in the assay with DFNB31_2, Q9P202, “below the threshold”; in the assay with DVL3, Q92997, “below the threshold”; with LDB3, O75112 it was 3.51; with DLG1_2, Q12959 it was “below the threshold”. The pKd with MAGI2_2, Q86UL8 is 3.48; with LIN7A, O14910 it was “below the threshold”; in the assay with GRIP2_7, Q9C0E4, 3.58; with APBA1_1, Q02410, “below the threshold”; in the assay with DFNB31_1, Q9P202 it was “below the threshold”; in the assay with PARD3_3, Q8TEW0 it was 3.83.

As usually defined, the pKd is the negative decadic logarithm of the Kd, by convention in mol/L.
